Measured values taken from US20110293648A1 (LUDWIG INSTITUTE FOR CANCER RESEARCH, published 2011).

Columns and labels:
[1] = target: MHC class I; test: flow cytometry, staining of an EBV cell line (internal control)
[2] = target: HLA-DR; test: as above
[3] = target: T1, HLA-DRB1*0701 (human); test: not specified ('The methods described above')
T1 construct: whole, on cells; On LCL 40 or homozygous EBV line BH in the T cell assays

[4] = target: T2, HLA-DRB1*0301 (human); test: not specified ('The methods described above')
T2 construct: whole, on cells; also called DR3; HLA-DR3

[5] = target: T2, HLA-DRB1*0301; test: cell-based or functional assay
[6] = target: T3, HLA-DRB5*0101 (human); test: not specified ('The methods described above')
T3 construct: whole, on cells; On Me 290 cells in the ELISPOT assay

[7] = target: T4, HLA-DRB1*1501 (human); test: not specified ('The methods described above')
T4 construct: whole, on cells; On Me 290 cells in the ELISPOT assay

[8] = target: T5, HLA-DRB1*1101 (human); test: not specified ('The methods described above')
T5 construct: whole, on cells; On antigen presenting cells in the ELISPOT assays

[9] = target: T6, HLA-DRB1*0101 (human); test: not specified ('The methods described above')
T6 construct: Only the beta allele is printed

**Q.** For anti-pan MHC-I antibody clone W6/32, which MFI [1] is on record?
**A.** Its MFI is 271 MFI.

**Q.** Which MFI [2] does the source give for anti-HLA-DR antibody clone L243 here?
**A.** The MFI was 787 MFI.

B1: SSX-2 peptide p101-115 (peptide)
peptide: FGRLQGISPKIMPKK
**Q.** Does B1 bind [3]?
**A.** Result: binds

**Q.** Does B1 bind [4]?
**A.** Result: binds

B2: SSX-5 37-51 peptide (peptide)
peptide: WEKMKASEKIFIVYM
**Q.** How did the “cross-recognition by SSX-2 specific, DR3 restricted CD4+ T cells, peptide titration, IFN-gamma ELISA; efficiency against SSX-2 37-51” value [5] turn out when B2 was run?
**A.** The value was ~3 fold less efficiently.

B3: SSX-4 37-51 peptide (peptide)
peptide: WEKMKSSEKIVYVYM
**Q.** How did the “cross-recognition by SSX-2 specific, DR3 restricted CD4+ T cells, peptide titration, IFN-gamma ELISA; efficiency against SSX-2 37-51” value [5] turn out when B3 was run?
**A.** Its value is ~10 fold less efficiently.

B4: SSX-2 peptide p98-112 (peptide)
peptide: QMTFGRLQGISPKIM
notes: also called p98-111 (as printed once); SSX-2 98-112
**Q.** Which results are given for B4?
**A.** binding result [6]: binds; binding result [7]: binds; binding result [8]: binds; binding result [9]: binds
